Assay results published in publication PMC11266487.

Biological target: angiotensin converting enzyme 2 (ACE2) (human (endogenous in BCi.NS1.1)) (UniProt Q9BYF1)
UniProt Q9BYF1, sequence (Q9BYF1 18-805): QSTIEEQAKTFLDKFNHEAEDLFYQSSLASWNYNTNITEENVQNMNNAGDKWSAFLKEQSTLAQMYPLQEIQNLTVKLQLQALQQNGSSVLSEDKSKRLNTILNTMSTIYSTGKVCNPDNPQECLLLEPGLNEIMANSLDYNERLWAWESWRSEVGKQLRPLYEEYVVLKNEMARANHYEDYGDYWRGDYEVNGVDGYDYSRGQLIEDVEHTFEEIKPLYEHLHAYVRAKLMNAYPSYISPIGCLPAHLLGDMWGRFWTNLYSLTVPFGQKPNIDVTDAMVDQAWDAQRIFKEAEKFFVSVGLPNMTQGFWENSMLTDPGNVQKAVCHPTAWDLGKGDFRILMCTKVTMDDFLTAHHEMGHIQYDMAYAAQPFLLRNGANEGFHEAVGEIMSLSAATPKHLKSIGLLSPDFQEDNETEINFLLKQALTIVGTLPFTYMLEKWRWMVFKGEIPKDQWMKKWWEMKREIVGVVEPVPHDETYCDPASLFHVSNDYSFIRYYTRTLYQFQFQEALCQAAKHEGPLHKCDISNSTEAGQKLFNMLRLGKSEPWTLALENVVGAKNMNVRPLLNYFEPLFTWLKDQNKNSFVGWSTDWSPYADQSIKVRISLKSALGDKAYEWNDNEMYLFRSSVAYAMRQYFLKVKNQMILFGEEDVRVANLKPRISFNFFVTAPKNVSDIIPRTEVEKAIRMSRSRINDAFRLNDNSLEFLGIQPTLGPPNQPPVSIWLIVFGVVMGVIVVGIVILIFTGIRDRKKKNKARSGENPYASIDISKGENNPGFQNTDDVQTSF

| Substance | Ki for reduction of cAMP-activated CFTR chloride channel activity (Ussing chamber, differentiated BCi.NS1.1 epithelia) [µg/mL] |
| --- | --- |
| Wuhan-Hu-1 [S1S2] spike protein (natural protein) | 0.446 |
| β-1.351 [S1S2] spike protein (natural protein) | 0.21 |
